What was measured:
HIV-gpt(Δvif) = assay: Titers of HIV-gpt(Δvif) virions made in 293T or COS7 cells, infectivity in HeLa-CD4 cells; type: cell-based, HIV-1; conditions: for antiviral activity of chimera: titer of virions from 293T cells in the absence of Vif: FIG. 12A
From the text: (§1) To analyze the antiviral activity of pcDNA3.1-APOBEC3G-Myc, human 293T and African green monkey COS7 cells were transiently cotransfected with pcDNA3.1-APOBEC3G-Myc in the presence of vectors for expression of HIV-gpt(wt) or HIV-gpt(Δvif) [these are derivatives of wild-type (wt) or vif deleted (Δvif) HIV-1 with the bacterial gpt gene replacing the viral env gene; Madani & Kabat, J. Virol. […] 74, 5982–5987, 2000]. Virions were subsequently harvested from the culture media and analyzed their infectivities in HeLa-CD4 (clone HI-J) cells. […] Similar results were obtained with owl monkey kidney cells. Thus, HIV-1 Vif neutralizes human APOBEC3G-Myc in both human and monkey cells.

HIV-gpt(wt) = assay: Titers of HIV-gpt(wt) virions made in 293T or COS7 cells, infectivity in HeLa-CD4 cells; type: cell-based, HIV-1; conditions: producer cells 293T and COS7 cotransfected
From the text: as §1

HIV-1 encoded proteins = assay: Immunoblotting of HIV-1-encoded proteins (Gag, Vif) in cotransfected producer cells; type: cell-based
From the text: Expression vectors: pHIV-gpt(wt) and its derivative pHIV-gpt(Δvif) were previously described (Madani & Kabat, J. Virol. 72, 10251–10255, 1998; Page et al., J Virol 64, 5270–5276, 1990; Madani & Kabat, J. Virol. 74, 5982–5987, 2000). pcDNA3.1-Vif was donated by D. Gabuzda (Dana-Farber Cancer Institute, Harvard, Boston, Mass.). Rev-dependent plasmids for expression of the Vif mutants Δ2, Δ5, Δ6, Δ7, Δ9, Δ10, Δ12 and Δ13 (Simon et al., J. Virol. 73, 2675–2681, 1999) were provided by M. Malim (Medical Research Council, Cambridge, UK) and were coexpressed with pHIV-gpt(Δvif). APOBEC3G cDNA was cloned from H9 cells (nonpermissive) by reverse transcriptase-PCR (Barnes, Proc. Natl. Acad. Sci. USA 91, 2216–2220, 1994; Sambrook et al., Molecular Cloning. A Laboratory Manual, Chapter 14, 14.5–14.34., CSHL Press, Cold Spring Harbor, 1989) using primers complementary to the 5′ and 3′ ends of APOBEC3G coding region (Sheehy et al., Nature 418, 646–650, 2002) (upstream primer, 5′-[…]-3′ (SEQ ID NO: 15) containing an XhoI restriction site [underlined]; downstream primer, 5′-[…]-3′ (SEQ ID NO: 16) containing a SfuI restriction site [underlined]). […] Virus-containing fractions were detected by immunoblotting using HIV Immunoglobulin serum (AIDS Research & Reference Reagent Program, Division of AIDS, NIAID, NIH: contributed by NABI and NHLBI). […]

Molecule | antiviral activity of chimera: titer of virions from 293T cells in the absence of Vif (HIV-gpt(Δvif)) | effect on titers of HIV-gpt(wt) (HIV-gpt(wt)) | synthesis of HIV-1 encoded proteins in the producer cells or their packaging into virions (HIV-1 encoded proteins) | expression of Vif (HIV-1 encoded proteins; FIGS. 3A and 3B) | decrease of titers of HIV-gpt(Δvif) virions (HIV-gpt(Δvif); producer cells 293T and COS7 cotransfected)
APOBEC3G-luciferase (protein, Synthetic construct human APOBEC3G fused to luciferase) MKPHFRNTVERMYRDTFSYNFYNRPILSRRNTVWLCYEVKTKGPSRPPLDAKIFRGQVYSELKYHPEMRFFHWFSKWRKLHRDQEYEVTWYISWSPCTKCTRDMATFLAEDPKVTLTIFVARLYYFWDPDYQEALRSLCQKRDGPRATMKIMNYDEFQHCWSKFVYSQRELFEPWNNLPKYYILLHIMLGEILRHSMDPPTFTFNFNNEPWVRGRHETYLCYEVERMHNDTWVLLNQRRGFLCNQAPHKHGFLEGRHAELCFLDVIPFWKLDLDQDYRVTCFTSWSPCFSCAQEMAKFISKNKHVSLCIFTARIYDDQGRCQEGLRTLAEAGAKISIMTYSEFKHCWDTFVDHQGCPFQPWDGLDEHSQDLSGRLRAILQNQENKLSMVTDAKNIKKGPAPFYPLEDGTAGEQLHKAMKRYALVPGTIAFTDAHIEVDITYAEYFEMSVRLAEAMKRYGLNTNHRIVVCSENSLQFFMPVLGALFIGVAVAPANDIYNERELLNSMGISQPTVVFVSKKGLQKILNVQKKLPIIQKIIIMDSKTDYQGFQSMYTFVTSHLPPGFNEYDFVPESFDRDKTIALIMNSSGSTGLPKGVALPHRTACVRFSHARDPIFGNQIIPDTAILSVVPFHHGFGMFTTLGYLICGFRVVLMYRFEEELFLRSLQDYKIQSALLVPTLFSFFAKSTLIDKYDLSNLHEIASGGAPLSKEVGEAVAKRFHLPGIRQGYGLTETTSAILITPEGDDKPGAVGKVVPFFEAKVVDLDTGKTLGVNQRGELCVRGPMIMSGYVNNPEATNALIDKDGWLHSGDIAYWDEDEHFFIVDRLKSLIKYKGYQVAPAELESILLQHPNIFDAGVAGLPDDDAGELPAAVVVLEHGKTMTEKEIVDYVASQVTTAKKLRGGVVFVDEVPKGLTGKLDARKIREILIKAKKGGKIAV | antiviral activity only in the absence of Vif |  |  |  | 
APOBEC3G-Myc: fusion of human APOBEC3G with Myc epitope and 6×His tag, SEQ ID NO: 2 (protein, Synthetic construct human APOBEC3G fused to Myc) MKPHFRNTVERMYRDTFSYNFYNRPILSRRNTVWLCYEVKTKGPSRPPLDAKIFRGQVYSELKYHPEMRFFHWFSKWRKLHRDQEYEVTWYISWSPCTKCTRDMATFLAEDPKVTLTIFVARLYYFWDPDYQEALRSLCQKRDGPRATMKIMNYDEFQHCWSKFVYSQRELFEPWNNLPKYYILLHIMLGEILRHSMDPPTFTFNFNNEPWVRGRHETYLCYEVERMHNDTWVLLNQRRGFLCNQAPHKHGFLEGRHAELCFLDVIPFWKLDLDQDYRVTCFTSWSPCFSCAQEMAKFISKNKHVSLCIFTARIYDDQGRCQEGLRTLAEAGAKISIMTYSEFKHCWDTFVDHQGCPFQPWDGLDEHSQDLSGRLRAILQNQENFEQKLISEEDLNMHTGHHHHHH | low titer | no effect | no significant or reproducible effect | no effect | 25–100 fold
